The labels stand for the following.
B1: Antibody 58: 1994-01-C7 variant; VH SEQ ID NO: 31, VL SEQ ID NO: 37 (antibody, V domains shown)
VH: QVQLVQSGAEVKKPGASVKVSCKASGYTFTSYGISWVRQAPGQGLEWMGWISAYNANVNYAQKLQGRVTMTTDTSTSTAYMELRSLRSDDTAAYYCARVTGITGTTIGPWGQGTMVTVSS
VL: DIQMTQSPSSLSASVGDRVTITCRASQSISSYLNWYQQKPGKAPKLLIYDASSLESGVPSRFSGSGSGTEFTLTISSLQPDDFAVYYCQQYNNWPQTFGQGTKVEIK
B2: Antibody 54: 1994-01-C7 variant; VH SEQ ID NO: 30, VL SEQ ID NO: 37 (antibody, V domains shown)
VH: B1 VH with V58T
VL: B1 VL
B3: Antibody 60: 1994-01-C7 variant; VH SEQ ID NO: 33, VL SEQ ID NO: 37 (antibody, V domains shown)
VH: B1 VH with A56S, V58T
VL: B1 VL
B4: A11BB133: 79E3E3 variant; VH SEQ ID NO: 4, VL SEQ ID NO: 21 (antibody, V domains shown)
VH: QIQLVQSGSELKKPGASVKVSCKASGYTFTDYAMNWVRQAPGQGLEWMGWINTQTGKPTYAQGFTGRFVFSLDTSVSTAYLQISSLKAEDTAVYYCTRLGTGNTKGFAYWGQGTLVTVSS
VL: DIQITQSPSSLSASVGDRVTITCKSSQSLLYSENNQDYLAWYQQKPGKVPKLLIYGASNRHTGVPSRFSGSGSGTDFTLTISSLQPEDVATYYCEQTYRYPFTFGQGTKLEIK
B5: A11BB140: 79E3E3 variant; VH SEQ ID NO: 7, VL SEQ ID NO: 22 (antibody, V domains shown)
VH: QIQLVQSGAEVKKPGSSVKVSCKASGYTFTDYAMNWVRQAPGQGLEWMGWINTQTGKPTYAQKFQGRVTFTLDESTSTTYMELSSLRSEDTAVYYCTRLGTGNTKGFAYWGQGTLVTVSS
VL: B4 VL with I4M
B6: A11BB143: 79E3E3 variant; VH SEQ ID NO: 15, VL SEQ ID NO: 22 (antibody, V domains shown)
VH: B5 VH with I2V, T79A
VL: B4 VL with I4M
B7: A11BB139: 79E3E3 variant; VH SEQ ID NO: 5, VL SEQ ID NO: 22 (antibody, V domains shown)
VH: B5 VH with T79A
VL: B4 VL with I4M
B8: A11BB138: 79E3E3 variant; VH SEQ ID NO: 12, VL SEQ ID NO: 21 (antibody, V domains shown)
VH: B4 VH with V20I, Y95F
VL: B4 VL
B9: A11BB134: 79E3E3 variant; VH SEQ ID NO: 10, VL SEQ ID NO: 22 (antibody, V domains shown)
VH: B4 VH with V20I, R38K, Y95F
VL: B4 VL with I4M
B10: A11BB142: 79E3E3 variant; VH SEQ ID NO: 6, VL SEQ ID NO: 22 (antibody, V domains shown)
VH: B5 VH with T97A
VL: B4 VL with I4M
B11: A11BB131: 79E3E3 variant; VH SEQ ID NO: 11, VL SEQ ID NO: 21 (antibody, V domains shown)
VH: B4 VH with V20I, S77R, Y95F
VL: B4 VL
B12: A11BB141: 79E3E3 variant; VH SEQ ID NO: 7, VL SEQ ID NO: 19 (antibody, V domains shown)
VH: B5 VH
VL: B4 VL
B13: A11BB136: 79E3E3 variant; VH SEQ ID NO: 14, VL SEQ ID NO: 22 (antibody, V domains shown)
VH: B4 VH with Y95F
VL: B4 VL with I4M
B14: A11BB112: 16E10 variant; VH SEQ ID NO: 49, VL SEQ ID NO: 61 (antibody, V domains shown)
VH: EVQLLESGGGLVQPGGSLRLSCAASGFSFSSSYYMCWVRQAPGKGLEWVSCIGTTRGSTYYADSVKGRFTISRDNSKNTLYLQMNSLRAEDTAVYYCARDATGYRINTIGLYFNLWGQGTLVTVSS
VL: DIVMTQSPDSLAVSLGERATINCQASQTIYSYLSWYQQKPGQPPKLLIYEASKLASGVPDRFSGSGSGTDYTLTISSLQAEDVAVYYCQSYHGTASTEYNTFGGGTKVEIK
B15: A11BB129: 16E10 variant; VH SEQ ID NO: 54, VL SEQ ID NO: 61 (antibody, V domains shown)
VH: B14 VH with C36S, C51A, L80V
VL: B14 VL
B16: A11BB117: 16E10 variant; VH SEQ ID NO: 56, VL SEQ ID NO: 61 (antibody, V domains shown)
VH: B14 VH with C36S, C51A, N75S, L80V, Y96F
VL: B14 VL
B17: A11BB123: 16E10 variant; VH SEQ ID NO: 47, VL SEQ ID NO: 61 (antibody, V domains shown)
VH: B14 VH with C36A, C51A, N75S
VL: B14 VL
B18: A11BB119: 16E10 variant; VH SEQ ID NO: 45, VL SEQ ID NO: 61 (antibody, V domains shown)
VH: B14 VH with C36A, C51A
VL: B14 VL
B19: A11BB125: 16E10 variant; VH SEQ ID NO: 55, VL SEQ ID NO: 61 (antibody, V domains shown)
VH: B14 VH with C36S, C51A, N75S
VL: B14 VL
B20: A11BB121: 16E10 variant; VH SEQ ID NO: 53, VL SEQ ID NO: 61 (antibody, V domains shown)
VH: B14 VH with C36S, C51A
VL: B14 VL
B21: A11BB127: 16E10 variant; VH SEQ ID NO: 46, VL SEQ ID NO: 61 (antibody, V domains shown)
VH: B14 VH with C36A, C51A, L80V
VL: B14 VL
B22: A11BB114: 16E10 variant; VH SEQ ID NO: 50, VL SEQ ID NO: 61 (antibody, V domains shown)
VH: B14 VH with L80V
VL: B14 VL

Changes are numbered by the printed parent chain.

Experimental findings from patent US20260184794A1, “ANTIBODIES AGAINST INTEGRIN ALPHA 11 BETA 1 AND USES THEREOF” (Momenta Pharmaceuticals, Inc., priority 2022, published 2026) are described below.

For orientation: EC50 means the midpoint of the concentration-response curve. Higher therefore signals a need for much substance. By IC50 is commonly meant the concentration that inhibits the measured activity by half.

The first test has as its target Pulmonary Myofibroblast. As to the kind of experiment: FACS antibody binding to pulmonary myofibroblasts (HPF/MF). Details: species or system human. Particulars: Table 11, 1994-01-C7 variants, FIG. 4B. On the procedure:
Human Pulmonary Fibroblasts (ScienCell) were cultured in complete Fibroblast Growth Medium (ScienCell) until 80% confluent in T-150 flasks. Cells were washed and harvested using Accutase. Cells were seeded into T-150 flasks at 7,500 cells/cm^2 in complete FGF and cultured for 72 hours. Cells were then washed and starved in serum reduced medium for 24 hours. After starvation, cells were treated with TGFβ1 (R&D Systems) for 72 hours. Cells were harvested using Accutase and seeded in 96-well conical bottom plates. Cells were blocked with Heat Inactived Fetal Bovine Serum (Gibco) for 30 minutes at 4° C. Cells were then incubated with anti-al I antibodies at the doses described in each figure for 30 minutes at 4° C. A human anti-al I antibody (Creative BioLabs) was included as a positive control as well as the appropriate IgG isotype negative controls. Cells were washed twice and incubated with PE conjugated secondary antibodies specific to the IgG class of the anti-α11 antibodies being tested for 30 minutes at 4° C. Cells were washed twice and fixed in 1% PF A for 30 minutes. Cells were acquired on a FACS Verse […]. Data were analyzed by gating on single cells and determining the geometric Mean Fluorescence Intensity (gMFI) in the PE channel for each sample.
With B1, a half-maximal response (EC50) required 2.87 nM.
Turning to B2, the EC50 is 2.4 nM. This EC50 and that of the molecule before are within 1.5-fold of each other.
Molecule B3 registered an EC50 of 4.6 nM. Compared with the last molecule, the EC50 is about 1.9-fold higher.

For a further test, the target named is T1, CHO-hu α11 (Homo sapiens, UniProt Q9UKX5).
T1 construct: expressed in transfected cells; host or cells: CHO-K1
T1 sequence (Q9UKX5 23-1188): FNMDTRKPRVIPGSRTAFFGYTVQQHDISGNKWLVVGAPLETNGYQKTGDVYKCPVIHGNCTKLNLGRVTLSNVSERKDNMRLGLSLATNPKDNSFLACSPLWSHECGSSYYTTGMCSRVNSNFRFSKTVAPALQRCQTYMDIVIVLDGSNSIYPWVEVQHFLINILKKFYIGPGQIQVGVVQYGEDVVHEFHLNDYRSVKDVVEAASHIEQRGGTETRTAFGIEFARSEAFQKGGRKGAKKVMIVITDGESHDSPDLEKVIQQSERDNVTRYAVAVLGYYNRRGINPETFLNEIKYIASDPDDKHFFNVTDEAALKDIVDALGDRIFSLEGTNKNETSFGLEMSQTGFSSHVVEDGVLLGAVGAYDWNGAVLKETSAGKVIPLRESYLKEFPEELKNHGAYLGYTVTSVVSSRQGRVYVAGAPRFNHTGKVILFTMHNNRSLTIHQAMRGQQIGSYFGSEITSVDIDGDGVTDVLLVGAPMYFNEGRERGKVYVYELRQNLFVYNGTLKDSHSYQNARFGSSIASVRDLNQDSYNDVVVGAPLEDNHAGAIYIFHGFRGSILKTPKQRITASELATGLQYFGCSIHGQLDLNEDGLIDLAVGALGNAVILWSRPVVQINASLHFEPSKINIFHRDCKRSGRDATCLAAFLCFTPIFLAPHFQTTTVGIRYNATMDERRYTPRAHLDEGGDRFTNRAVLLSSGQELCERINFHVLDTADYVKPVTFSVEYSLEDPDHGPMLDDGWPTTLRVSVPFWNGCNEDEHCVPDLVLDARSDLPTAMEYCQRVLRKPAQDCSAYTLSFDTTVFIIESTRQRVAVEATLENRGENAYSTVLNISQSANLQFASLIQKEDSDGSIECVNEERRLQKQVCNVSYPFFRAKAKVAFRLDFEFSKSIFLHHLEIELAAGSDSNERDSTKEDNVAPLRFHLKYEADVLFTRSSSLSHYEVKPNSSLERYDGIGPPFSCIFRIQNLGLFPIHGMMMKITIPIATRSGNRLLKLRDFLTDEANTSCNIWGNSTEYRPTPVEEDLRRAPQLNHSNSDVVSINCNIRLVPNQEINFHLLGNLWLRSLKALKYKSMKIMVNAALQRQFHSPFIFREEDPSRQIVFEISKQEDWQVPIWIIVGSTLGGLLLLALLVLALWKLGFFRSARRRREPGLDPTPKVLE
T1 sequence (P05556 21-798 partner): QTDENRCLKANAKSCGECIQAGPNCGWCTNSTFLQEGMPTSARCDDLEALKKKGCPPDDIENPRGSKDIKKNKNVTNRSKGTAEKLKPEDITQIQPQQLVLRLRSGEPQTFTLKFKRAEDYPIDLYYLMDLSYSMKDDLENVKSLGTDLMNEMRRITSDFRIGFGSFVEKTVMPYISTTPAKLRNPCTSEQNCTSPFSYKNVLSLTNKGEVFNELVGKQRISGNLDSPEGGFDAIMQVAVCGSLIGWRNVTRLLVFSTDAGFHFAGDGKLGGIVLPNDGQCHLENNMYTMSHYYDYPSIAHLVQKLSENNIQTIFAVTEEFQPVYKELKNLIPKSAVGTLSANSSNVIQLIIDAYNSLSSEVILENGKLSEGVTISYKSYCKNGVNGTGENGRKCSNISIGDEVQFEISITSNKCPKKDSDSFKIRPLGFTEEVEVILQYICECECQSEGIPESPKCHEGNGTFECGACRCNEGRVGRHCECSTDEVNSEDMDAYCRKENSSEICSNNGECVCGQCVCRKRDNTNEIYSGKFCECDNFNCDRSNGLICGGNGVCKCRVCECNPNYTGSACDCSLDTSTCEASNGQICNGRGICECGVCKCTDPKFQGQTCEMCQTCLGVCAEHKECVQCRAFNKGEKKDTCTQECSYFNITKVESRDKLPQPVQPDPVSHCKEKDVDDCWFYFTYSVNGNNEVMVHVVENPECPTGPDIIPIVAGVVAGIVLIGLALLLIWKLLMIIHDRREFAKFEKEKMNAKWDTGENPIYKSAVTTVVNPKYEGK
As to the kind of experiment: FACS antibody binding to CHO-K1 cells expressing human α11. Particulars: Table 11, 1994-01-C7 variants, FIG. 4A. On the procedure:
200,000 cells (wild-type CHO-K1 cells or CHO-K1 cells expressing human α11) were incubated with each antibody at desired concentrations in FACS buffer for 30 min at 4° C. Then, the cells were washed with FACS buffer and incubated with secondary antibody at 1:100 dilution for 30 minutes at 4° C. Cells were then washed and fixed with 1% PF A in PBS for 20 minutes at room temperature; washed again and read on a cytometer in FACS buffer.
Turning to B1, it took 5.94 nM to reach a half-maximal effect (EC50).
Same read-out and setting: as for B2, the figure is 5.5 nM.
Still for that read-out and setting: under B3 stands 5.3 nM.

Staying with this test, now noted: Table 13, 79E3E3 variants.
Regarding B4, the EC50 was found to be 5.13 nM.
Same read-out and setting: under B5 stands 2.5 nM.
For the molecule B6, the EC50 was 2.12 nM.
In the case of B7, the EC50 is 1.98 nM.
Still for that read-out and setting: under B8 stands 4.63 nM; under B9, 3.49 nM.
On to B10, for which the EC50 stood at 2.07 nM.
Same read-out and setting: as for B11, the figure is 2.49 nM; as for B12, 4.6 nM.
B13 yielded an EC50 of 1.92 nM. Against the preceding molecule, the EC50 is about 2.4-fold lower.

A further test has as its target T1, CHO-hu α11. In words: Cell adhesion inhibition on type I collagen (xCelligence). The settings on record: Table 11, 1994-01-C7 variants, FIG. 4C; read-out: Inhibition of Cell Adhesion IC50. In kind it is cell-based. On the procedure:
0.6×10^6 cells/mL were incubated with each antibody at a range of concentrations for 20 minutes at 37° C. E-Plate VIEW 96 PET plate coated with 100 ng/ml type I collagen or PBS overnight at room temperature was blocked in 3% BSA for 1 hour at room temperature. After washing the plate with PBS, cell and antibody mixture was added to the wells and the plate was places into an xCelligence machine. Cell adhesion was recorded over 6 hours. The time point of maximum cell adhesion was used for comparison relative to control.
B1: the IC50 was 3 nM.
For the molecule B2, the IC50 was determined as 3.5 nM.
Consider B3, for which the IC50 is 4.2 nM.

Still in this test, the particulars now being: Table 12, 16E10 variants, FIG. 5B; read-out: CHO-α11 Adhesion Inhibition IC50.
For B14, the IC50 is 0.5 nM.
As to B15, the IC50 worked out at 0.5 nM.
B16: the IC50 was determined as 0.7 nM.
The same measure, in the same setting: under B17 stands 0.5 nM; under B18, 0.7 nM.
Regarding B19, the concentration for half-maximal inhibition (IC50) stood at 0.5 nM.
Still for that read-out and setting: under B20 stands 0.5 nM; under B21, 0.4 nM.
For the molecule B22, the 50% inhibitory concentration (IC50) is 0.5 nM.
